Columns and labels:
GST-Esc2-MRΔ = target: T1, GST-Esc2-MRΔ (budding yeast, UniProt Q06340 1-456, truncating residues 154 to 198); experiment: pull-down; GST or GST-tagged Esc2 or variants (2.2 μM) incubated with 3.6 μM Ubc9 in T buffer (25 mM Tris-Cl pH 7.4, 10% glycerol, 0.5 mM EDTA, 0.01% Igepal, 1 mM DTT) with 80 mM KCl, 30 min at 4 °C; captured on Glutathione Sepharose 4B; SDS-PAGE, Coomassie blue stain; details: both partners purified
T1 construct: Esc2 of budding yeast lacking the midregion (MR), residues 154 to 198; The methods describe a pET24a construct; source: expressed and purified by published procedures
T1 sequence (looked up): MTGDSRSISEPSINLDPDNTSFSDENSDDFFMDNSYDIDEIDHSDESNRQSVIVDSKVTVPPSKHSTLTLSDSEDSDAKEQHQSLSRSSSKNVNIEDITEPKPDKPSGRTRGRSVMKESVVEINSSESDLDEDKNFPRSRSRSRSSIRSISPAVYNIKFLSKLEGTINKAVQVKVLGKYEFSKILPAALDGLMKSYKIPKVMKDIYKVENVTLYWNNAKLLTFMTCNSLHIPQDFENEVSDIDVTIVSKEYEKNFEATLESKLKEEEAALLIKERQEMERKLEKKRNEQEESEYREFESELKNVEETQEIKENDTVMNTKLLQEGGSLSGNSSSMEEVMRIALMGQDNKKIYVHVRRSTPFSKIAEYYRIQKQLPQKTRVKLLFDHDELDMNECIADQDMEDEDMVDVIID

GST-Esc2-5E = target: T2, GST-Esc2-5E (budding yeast, UniProt Q06340 1-456, K179E | K182E | K183E | K197E | R198E); experiment: as above; details: both partners purified
T2 construct: Esc2 of budding yeast with five basic residues of the midregion (MR) replaced by glutamic acid; The methods describe a pET24a construct; source: expressed and purified by published procedures
T2 sequence (looked up): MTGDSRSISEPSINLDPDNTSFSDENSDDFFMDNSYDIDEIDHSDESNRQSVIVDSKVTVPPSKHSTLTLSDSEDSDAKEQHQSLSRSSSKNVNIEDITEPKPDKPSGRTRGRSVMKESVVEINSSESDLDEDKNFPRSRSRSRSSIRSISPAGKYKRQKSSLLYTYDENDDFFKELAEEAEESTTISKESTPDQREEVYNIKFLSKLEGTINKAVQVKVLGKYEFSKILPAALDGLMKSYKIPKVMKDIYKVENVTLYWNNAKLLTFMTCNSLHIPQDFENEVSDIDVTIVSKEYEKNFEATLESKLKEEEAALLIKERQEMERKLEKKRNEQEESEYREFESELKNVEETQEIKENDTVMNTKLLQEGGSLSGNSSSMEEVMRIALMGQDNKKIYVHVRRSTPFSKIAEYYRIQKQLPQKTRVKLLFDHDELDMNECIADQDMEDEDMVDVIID

Mms21;Smc5 = target: T3, Mms21;Smc5 (Saccharomyces cerevisiae;Saccharomyces …, UniProt P38632;Q08204 1-267;1-1093, |); experiment: EMSA; 5-40 nM E3, 5 nM DNA; less pronounced than STR; 35 mM Tris-HCl pH 7.5, 1 mM DTT, 100 ug/ml BSA, 5 mM MgCl2, 130 mM KCl, 30 C, 10 min; native PAGE in TAE (6.5% STR and E3, 7% Esc2); details: protein: recombinant;recombinant; tags: ;; copies: 1;1; four-way Holliday junction of 4 strands
T3 sequence 1: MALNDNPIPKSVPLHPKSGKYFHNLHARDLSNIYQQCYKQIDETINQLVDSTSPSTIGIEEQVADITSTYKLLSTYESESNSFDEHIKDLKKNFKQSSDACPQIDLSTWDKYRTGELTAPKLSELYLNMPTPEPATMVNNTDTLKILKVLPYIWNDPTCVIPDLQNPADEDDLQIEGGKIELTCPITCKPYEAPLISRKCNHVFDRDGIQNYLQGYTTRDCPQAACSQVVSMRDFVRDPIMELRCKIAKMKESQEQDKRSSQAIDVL
T3 sequence 2: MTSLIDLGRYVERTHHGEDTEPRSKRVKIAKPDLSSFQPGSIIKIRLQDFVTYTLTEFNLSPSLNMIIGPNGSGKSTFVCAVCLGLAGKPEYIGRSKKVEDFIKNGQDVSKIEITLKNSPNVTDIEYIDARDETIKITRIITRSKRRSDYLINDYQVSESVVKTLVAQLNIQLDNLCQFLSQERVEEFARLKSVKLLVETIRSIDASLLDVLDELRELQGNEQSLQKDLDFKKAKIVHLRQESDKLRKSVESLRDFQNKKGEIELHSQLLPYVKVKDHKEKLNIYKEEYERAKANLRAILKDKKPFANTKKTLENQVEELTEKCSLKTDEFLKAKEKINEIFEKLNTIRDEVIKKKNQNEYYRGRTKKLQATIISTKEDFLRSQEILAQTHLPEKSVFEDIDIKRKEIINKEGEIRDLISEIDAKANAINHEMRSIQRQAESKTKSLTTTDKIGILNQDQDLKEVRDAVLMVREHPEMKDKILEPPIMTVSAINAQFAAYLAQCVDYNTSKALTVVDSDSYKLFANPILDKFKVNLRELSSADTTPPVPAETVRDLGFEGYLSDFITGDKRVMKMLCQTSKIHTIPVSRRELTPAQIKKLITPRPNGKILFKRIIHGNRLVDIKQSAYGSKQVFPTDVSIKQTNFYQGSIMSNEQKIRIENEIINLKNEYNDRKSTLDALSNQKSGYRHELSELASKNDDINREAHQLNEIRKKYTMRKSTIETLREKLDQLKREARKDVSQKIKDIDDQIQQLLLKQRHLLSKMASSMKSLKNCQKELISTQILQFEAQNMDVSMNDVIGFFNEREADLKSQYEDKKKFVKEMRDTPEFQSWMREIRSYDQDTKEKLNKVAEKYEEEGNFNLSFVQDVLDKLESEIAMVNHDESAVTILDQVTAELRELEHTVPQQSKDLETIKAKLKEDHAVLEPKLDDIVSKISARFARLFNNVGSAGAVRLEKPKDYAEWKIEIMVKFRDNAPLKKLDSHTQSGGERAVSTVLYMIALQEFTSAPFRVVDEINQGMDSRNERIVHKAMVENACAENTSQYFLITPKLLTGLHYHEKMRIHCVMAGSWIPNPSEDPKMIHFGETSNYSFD

Esc2 = target: T4, Esc2 (Saccharomyces cerevisiae, UniProt Q06340 1-456); experiment: EMSA; 5-80 nM Esc2, 5 nM DNA; strong preference over dsDNA; 35 mM Tris-HCl pH 7.5, 1 mM DTT, 100 ug/ml BSA, 5 mM MgCl2, 130 mM KCl, 30 C, 10 min; native PAGE in TAE (6.5% STR and E3, 7% Esc2); details: protein: recombinant; four-way Holliday junction of 4 strands
T4 sequence: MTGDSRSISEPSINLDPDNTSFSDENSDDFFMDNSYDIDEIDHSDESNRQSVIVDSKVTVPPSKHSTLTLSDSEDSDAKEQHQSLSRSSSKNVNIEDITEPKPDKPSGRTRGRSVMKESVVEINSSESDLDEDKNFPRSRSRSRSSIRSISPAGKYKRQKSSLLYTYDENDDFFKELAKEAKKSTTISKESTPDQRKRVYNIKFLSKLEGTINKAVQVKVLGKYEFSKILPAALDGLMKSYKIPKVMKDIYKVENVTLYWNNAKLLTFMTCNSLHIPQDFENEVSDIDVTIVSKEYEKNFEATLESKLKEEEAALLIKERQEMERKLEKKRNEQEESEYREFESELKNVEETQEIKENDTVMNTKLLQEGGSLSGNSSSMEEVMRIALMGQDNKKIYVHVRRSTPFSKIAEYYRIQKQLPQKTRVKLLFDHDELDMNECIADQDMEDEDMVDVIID

Sgs1;Top3;Rmi1 [1] = target: T5, Sgs1;Top3;Rmi1 (Saccharomyces cerevisiae;Saccharomyces …, UniProt P35187;P13099;Q02685 1-1447;1-656;1-241, ||); experiment: EMSA; 5-40 nM STR, 5 nM DNA; 35 mM Tris-HCl pH 7.5, 1 mM DTT, 100 ug/ml BSA, 5 mM MgCl2, 130 mM KCl, 30 C, 10 min; native PAGE in TAE (6.5% STR and E3, 7% Esc2); details: protein: recombinant;recombinant;recombinant; tags: Flag;V5;GST; copies: 1;1;1; four-way Holliday junction of 4 strands
Esc2-5E = target: T6, Esc2-5E (Saccharomyces cerevisiae, UniProt Q06340 1-456, K179E;K182E;K183E;K197E;R198E); experiment: EMSA; 5-80 nM protein, 5 nM DNA; 35 mM Tris-HCl pH 7.5, 1 mM DTT, 100 ug/ml BSA, 5 mM MgCl2, 130 mM KCl, 30 C, 10 min; native PAGE in TAE (6.5% STR and E3, 7% Esc2); details: protein: recombinant
T6 sequence: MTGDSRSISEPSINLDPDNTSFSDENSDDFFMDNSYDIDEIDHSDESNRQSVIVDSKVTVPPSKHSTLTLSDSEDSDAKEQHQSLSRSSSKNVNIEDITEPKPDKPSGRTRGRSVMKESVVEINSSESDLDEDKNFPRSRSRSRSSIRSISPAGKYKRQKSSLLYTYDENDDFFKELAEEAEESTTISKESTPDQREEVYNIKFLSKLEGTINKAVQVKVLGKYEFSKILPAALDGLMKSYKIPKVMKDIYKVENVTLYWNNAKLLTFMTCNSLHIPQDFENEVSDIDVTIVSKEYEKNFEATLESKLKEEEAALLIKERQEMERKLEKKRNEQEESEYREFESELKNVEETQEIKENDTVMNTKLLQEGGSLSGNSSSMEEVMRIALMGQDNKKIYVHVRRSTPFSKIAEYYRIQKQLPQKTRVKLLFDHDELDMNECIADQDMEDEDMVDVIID

Esc2-MRΔ = target: T7, Esc2-MRΔ (Saccharomyces cerevisiae, UniProt Q06340 1-456, del154-198); experiment: as above; details: protein: recombinant
T7 sequence: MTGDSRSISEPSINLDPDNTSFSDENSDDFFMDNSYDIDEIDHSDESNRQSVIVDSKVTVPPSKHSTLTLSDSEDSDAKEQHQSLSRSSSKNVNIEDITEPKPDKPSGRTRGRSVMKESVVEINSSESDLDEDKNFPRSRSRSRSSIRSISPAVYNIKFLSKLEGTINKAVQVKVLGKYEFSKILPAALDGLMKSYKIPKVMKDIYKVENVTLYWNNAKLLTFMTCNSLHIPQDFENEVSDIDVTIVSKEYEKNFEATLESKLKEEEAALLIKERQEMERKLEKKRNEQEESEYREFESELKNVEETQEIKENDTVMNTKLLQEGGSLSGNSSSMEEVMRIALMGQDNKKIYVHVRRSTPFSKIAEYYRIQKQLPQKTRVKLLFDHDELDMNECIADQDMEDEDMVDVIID

Sgs1;Top3;Rmi1 [2] = target: T5, Sgs1;Top3;Rmi1; experiment: EMSA; 5-40 nM STR, 5 nM DNA; similar to HJ; 35 mM Tris-HCl pH 7.5, 1 mM DTT, 100 ug/ml BSA, 5 mM MgCl2, 130 mM KCl, 30 C, 10 min; native PAGE in TAE (6.5% STR and E3, 7% Esc2); details: protein: recombinant;recombinant;recombinant; tags: Flag;V5;GST; copies: 1;1;1; blunt
[3] = four-way Holliday junction of 4 strands

T5 sequence (P35187 whole entry, chain 1 of 3): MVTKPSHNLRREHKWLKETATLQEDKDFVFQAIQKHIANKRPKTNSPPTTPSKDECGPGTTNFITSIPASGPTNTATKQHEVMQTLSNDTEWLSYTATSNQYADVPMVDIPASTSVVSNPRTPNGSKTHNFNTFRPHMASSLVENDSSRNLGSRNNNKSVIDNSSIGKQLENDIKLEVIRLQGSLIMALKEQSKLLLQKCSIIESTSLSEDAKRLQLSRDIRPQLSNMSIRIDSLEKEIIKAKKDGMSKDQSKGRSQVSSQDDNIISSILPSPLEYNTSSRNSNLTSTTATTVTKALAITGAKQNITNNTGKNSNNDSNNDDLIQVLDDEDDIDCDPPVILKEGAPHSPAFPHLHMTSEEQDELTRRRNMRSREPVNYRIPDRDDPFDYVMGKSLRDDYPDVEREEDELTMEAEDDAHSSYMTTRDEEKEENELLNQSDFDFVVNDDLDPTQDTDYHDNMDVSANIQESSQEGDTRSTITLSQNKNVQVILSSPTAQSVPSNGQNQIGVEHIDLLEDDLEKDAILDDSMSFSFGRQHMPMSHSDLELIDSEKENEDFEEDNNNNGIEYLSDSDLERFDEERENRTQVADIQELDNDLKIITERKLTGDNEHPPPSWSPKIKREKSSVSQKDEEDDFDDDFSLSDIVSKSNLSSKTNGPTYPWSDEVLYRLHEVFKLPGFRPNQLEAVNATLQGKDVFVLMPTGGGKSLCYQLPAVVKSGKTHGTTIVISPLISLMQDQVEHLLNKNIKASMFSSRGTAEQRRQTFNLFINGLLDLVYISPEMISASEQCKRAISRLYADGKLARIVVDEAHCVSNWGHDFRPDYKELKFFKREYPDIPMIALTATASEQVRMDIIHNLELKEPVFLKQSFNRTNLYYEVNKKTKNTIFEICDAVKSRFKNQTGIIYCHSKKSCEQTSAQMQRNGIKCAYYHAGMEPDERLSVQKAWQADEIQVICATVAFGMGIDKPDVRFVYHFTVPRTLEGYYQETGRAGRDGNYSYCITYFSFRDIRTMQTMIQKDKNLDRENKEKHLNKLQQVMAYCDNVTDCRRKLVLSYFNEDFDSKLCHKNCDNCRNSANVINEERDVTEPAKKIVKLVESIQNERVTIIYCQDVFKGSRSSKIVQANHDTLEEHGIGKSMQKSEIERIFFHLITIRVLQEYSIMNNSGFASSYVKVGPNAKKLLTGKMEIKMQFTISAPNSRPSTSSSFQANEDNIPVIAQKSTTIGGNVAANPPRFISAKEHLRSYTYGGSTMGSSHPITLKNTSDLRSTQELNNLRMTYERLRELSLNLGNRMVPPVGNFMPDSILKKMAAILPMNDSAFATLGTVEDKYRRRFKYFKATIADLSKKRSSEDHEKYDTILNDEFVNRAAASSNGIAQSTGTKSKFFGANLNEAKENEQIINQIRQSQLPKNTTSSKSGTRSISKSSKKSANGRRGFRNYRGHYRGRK
T5 sequence (P13099 whole entry, chain 2 of 3): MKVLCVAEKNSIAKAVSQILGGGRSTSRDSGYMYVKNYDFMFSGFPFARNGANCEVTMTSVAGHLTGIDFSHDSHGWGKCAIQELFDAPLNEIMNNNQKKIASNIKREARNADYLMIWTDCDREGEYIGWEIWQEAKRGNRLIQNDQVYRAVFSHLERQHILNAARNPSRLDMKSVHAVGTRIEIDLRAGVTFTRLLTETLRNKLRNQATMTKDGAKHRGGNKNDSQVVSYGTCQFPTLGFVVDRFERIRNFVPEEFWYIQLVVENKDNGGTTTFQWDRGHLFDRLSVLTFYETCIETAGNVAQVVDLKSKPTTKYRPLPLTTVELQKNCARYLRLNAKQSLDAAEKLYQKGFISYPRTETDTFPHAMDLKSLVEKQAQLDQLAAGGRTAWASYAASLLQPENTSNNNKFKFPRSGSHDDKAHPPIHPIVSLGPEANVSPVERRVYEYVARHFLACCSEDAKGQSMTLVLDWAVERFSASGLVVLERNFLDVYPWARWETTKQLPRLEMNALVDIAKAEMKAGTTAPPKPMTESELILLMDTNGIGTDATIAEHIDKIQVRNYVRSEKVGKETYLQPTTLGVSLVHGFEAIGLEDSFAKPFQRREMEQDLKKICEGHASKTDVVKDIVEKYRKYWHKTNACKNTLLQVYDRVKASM
T5 sequence (Q02685 whole entry, chain 3 of 3): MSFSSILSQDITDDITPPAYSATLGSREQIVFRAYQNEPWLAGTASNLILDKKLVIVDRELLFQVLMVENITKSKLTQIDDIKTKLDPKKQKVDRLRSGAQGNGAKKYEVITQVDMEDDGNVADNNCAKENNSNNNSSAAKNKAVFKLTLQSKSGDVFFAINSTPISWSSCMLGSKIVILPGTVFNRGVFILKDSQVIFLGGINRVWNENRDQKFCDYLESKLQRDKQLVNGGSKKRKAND

B1: Ubc9 (SUMO E2) (enzyme, budding yeast, UniProt P50623 1-157, looked up)
chain: MSSLCLQRLQEERKKWRKDHPFGFYAKPVKKADGSMDLQKWEAGIPGKEGTNWAGGVYPITVEYPNEYPSKPPKVKFPAGFYHPNVYPSGTICLSILNEDQDWRPAITLKQIVLGVQDLLDSPNPNSPAQEPAWRSFSRNKAEYDKKVLLQAKQYSK
notes: Ubc9, the SUMO E2 enzyme of budding yeast; source: E. coli, purified (previously published procedures)
binding result (GST-Esc2-MRΔ): binds | binding result (GST-Esc2-5E): binds

B2: HJ-DNA (H3/H5/H7/H8) (structured_DNA)
DNA 1: TTGATAAGAGGTCATTTGAATTCATGGCTTAGAGCTTAATTGCTGAATCTGGTGCTGGGATCCAACATGTTTTAAATATG
DNA 2: CATATTTAAAACATGTTGGATCCCAGCACCAGATTCAGCATACGTTACCGATCGTACGTTCGATGCTGGCTACTGCTAGC
DNA 3: GCTAGCAGTAGCCAGCATCGAACGTACGATCGGTAACGTAGTCGATTATCGAGATCAAGCTAGCATAGCCATAGCGCGAC
DNA 4: GTCGCGCTATGGCTATGCTAGCTTGATCTCGATAATCGACATTAAGCTCTAAGCCATGAATTCAAATGACCTCTTATCAA
binding result (Mms21;Smc5): binds | binding result (Esc2): binds | binding result (Sgs1;Top3;Rmi1 [1]): binds | binding result (Esc2-5E; [3]): no binding | binding result (Esc2-MRΔ; [3]): no binding

B3: dsDNA (H3/H4) (dsDNA)
DNA 1: TTGATAAGAGGTCATTTGAATTCATGGCTTAGAGCTTAATTGCTGAATCTGGTGCTGGGATCCAACATGTTTTAAATATG
DNA 2: CATATTTAAAACATGTTGGATCCCAGCACCAGATTCAGCAATTAAGCTCTAAGCCATGAATTCAAATGACCTCTTATCAA
binding result (Sgs1;Top3;Rmi1 [2]): binds | binding result (Esc2-5E; blunt): no binding | binding result (Esc2-MRΔ; blunt): no binding

Source: paper PMC9243176, “Multifaceted regulation of the sumoylation of the Sgs1 DNA helicase” (The Journal of Biological Chemistry, 2022)
